Assay [1] concerns the target SK-BR-3 cells (antigen not identified). Description: saturation binding to cells by FACS, double-reciprocal plot; 'Rel. Affinity (nM)'; antigen on the cells not identified.
Assay [2] concerns the target OVCAR-3 cells (antigen not identified). The assay is described as above.
Assay [3] has the same target. Description: immunohistochemistry on OVCAR3 cells.

Some results are limits rather than exact numbers.

B1: 1250_I13 (antibody, V domains shown)
VH: QVQLQQWGAGLLKPSETLSLTCAVYGGSFSGYFWTWVRQLPGRGLEWIGEINHRGTSSYNPSLRSRLTISVDTSKNQFSLKLSSVTAADTAVYYCARITEAVGFTSFDYWGQGILVTVSS
VL: QSVLTQPPSMSAAPGQKVTISCSGSTSNIGSNYVSWYQQLPQRAPKLLIYDNDKRPSGIPDRFSGSKSGASATLDITGLQTGDEAYYYCGTWDSSLSRVFGGGTKLTVL
Broadly, the Kd is the constant that tells how readily two partners part at equilibrium. Turning to B1, the Kd in assay [1] is 1.1 nM.

B2: 1253_N12 (antibody, V domains shown)
VH: QVQLQQWGAGLVKPSETLSVTCAVYGGSFSGYFWTWIRQPPGRGLEWIGEINHRGSSSYNPSLRSRLSISVDTSKNQFSLKMRSVTAADTAVYYCARITEAVGVTSFDSWGQGVLVTVSS
VL: QSVLTQPPSVSAAPGQKVTISCSGSTSNIGNNYVSWYQQLPQRAPKLLIYDDDKRPSGIPDRFSGSKSGASATLAITGLQTGDEAYYYCGTWDSSLSRVFGGGTKLTVL
In turn, B2 came in with a Kd in assay [1] of 1.1 nM.

B3: 1226_K16 (antibody, V domains shown)
VH: QVQLQQWGAGLLKPSETLSLTCAVYGGSLSGYFWTWIRQPPGRGLEWIGEINHRRTTTSNPSLRSRLTISLDTSKNQFSLKLSSVTAADTAVYYCARITEAVGVTSFDYWGQGILVTVSS
VL: QSVLTQPPSVSAAPGQKVNISCSGSTSNIGNNFVAWYQQLPQRAPKLLIYDNDKRPSGIPDRFSGSKSGASATLGITGLQSGDEAYYYCGTWDSTLSRVFGGGTKLTVL
The molecule B3 yielded a Kd in assay [2] of 1.6 nM.

B4: 1256_B2 (antibody, V domains shown)
VH: QVQLQQWGAGLLKPSETLSLTCAVYGGSFSGYFWSWIRQPPGRGLEWIGEINHRGSSTYKSSLKTRLTMSVDTSKNQFSIKLTSVTAADTAVYYCARITEAVGVTSFDSWGQGVLVTVSS
VL: QSVLTQPPSVSAAPGQKVTISCSGSTSNIGNNYVSWYQQLPQRAPRLLIYDNDKRPSGIPDRFSGSKSGASATLGITGLQTGDEAYYYCGTWDNNLSRVFGGGTKLTVL
In assay [1], B4 returned a Kd of 1.2 nM.

B5: 1242_P11 (antibody, V domains shown)
VH: QVQLTQWGAGLLKPSETLSLTCAVGGGSFSGYFWTWIRQSPGRGLEWIGEINHKGKTTYNPTLKSRLSILVDTFKNQFSLKLRSVVAADTAVYYCARIVEAVGVTSFDSWGQGILVTVSS
VL: QSVLTQPPSVSAAPGQKVTISCSGSTSNIGNNHVSWYQQLPQTAPKLLIYDNNKRPSGIPDRFSGSKSGASATLGITGLQTGDEAYYYCGTWDTRLSRVFGGGTKLTVL
In the case of B5, in assay [2], the Kd was determined as 2 nM.

B6: 1038_D5 (TCN-445) (antibody, V domains shown)
VH: QVQLVQSGAEVQKPGASMKVSCKASGYTFTDFYFHWVRQAPGQGLEWMGWINPRSGATNYAHKFRGRVTMTSDTSIKTIYMSLGWLRSGDTAVYYCARDMRRENGYNFDGTFDYWGQGTLVTVSS
VL: DIQMTQSPPSLSASVGDRVTITCQASQDIKNYLNWYQQKPGKAPKLLIYDASNLETGVPSRFSGSRSGTNFTFTINSLQPEDIATYFCQRYDAFPLTFGGGSKVEIK
Regarding B6, the Kd in assay [2] was 0.8 nM. Besides, the # Samples Staining Positive in assay [3] was greater than 75%.
